# B1: TRE3GCuO: Tet-On (7xTetO of TRE3G) and Cumate complex response element, CuO 50 bp behind the TATA box (SEQ ID NO: 23) (nucleic acid)
# DNA: TCCCTATCAGTGATAGAGAACGTATGAAGAGTTTACTCCCTATCAGTGATAGAGAACGTATGCAGACTTTACTCCCTATCAGTGATAGAGAACGTATAAGGAGTTTACTCCCTATCAGTGATAGAGAACGTATGACCAGTTTACTCCCTATCAGTGATAGAGAACGTATCTACAGTTTACTCCCTATCAGTGATAGAGAACGTATATCCAGTTTACTCCCTATCAGTGATAGAGAACGTATTAGGCGTGTACGGTGGGCGCCTATAAAAGCAGAGCTCGTTTAGTGAACCGTCAGATCGCCTGGAGCAATTCCACATACAAACAGACCAGATTGTCTGTTTGTT
# modifications: TRE3GCuO50 response element sequence
# Key:
# 293T-rtTA3G-CymR cells [1] = experiment: Luciferase assay, transient transfection, DOX and Cumate vs no inducer (Example 3), rtTA3G cells; type: cell-based
# Protocol: (§1) 293T cells were seeded at 1.5E+06 cells per 60 mm culture dish, and cultured in DMEM (Sigam, D6429) complete medium supplemented with 10% FBS (ExCell, 11H116) at 37° C. and 5% CO 2. After 24 hours of culture, transfection was carried out according to the PEI method. During transfection, 500 μL of transfection reagent which contained 5.5 ug of total plasmid was added to each 60 mm culture dish, and the mass ratio of total plasmid to PEI MAX (Polysciences, 24765-1) was 1:4. The transfection was carried out according to the PEI method, wherein the amount of total plasmid was 5.5 μg. The transfection was performed with plasmids 19BF074:18BF019 at a molar ratio of 10:1 to obtain 293T-rtTAadv-CymR cells; and the transfection was performed with plasmids 19BF075:18BF019 at a molar ratio of 10:1 to obtain 293T-rtTA3G-CymR cells. The plasmid and PEI MAX were mixed uniformly, and then put into a culture dish after standing for 15 minutes. 3 hours after transfection, the medium was changed to a complete DMEM medium, and the transfection operation was completed. After 24 hours of transfection, the cells were digested with trypsin and all seeded in a 100 mm culture dish (Corning, 430167), and 200 μg/ml of hygromycin (Sangon Biotech A600230-0001) drug screening was performed for at least three passages. After the growth of cells under the pressure of drug screening was consistent with that of the original 293T cells, the following experiments were performed.
# In Tet-On inducible expression system, the induced transcription activity and the leaky transcription activity were comprehensively affected by the TetO operator linking sequence of the TRE response element and the minimal promoter sequence, as well as different mutants of the transactivator rtTA. In addition, the transport and stability of messenger ribonucleic acid may be enhanced by linking a spliceable intron sequence downstream of the 3′ end of the response element and upstream of the 5′ end of the regulated nucleic acid fragment of interest, but the induced transcription activity and leaky transcription activity of response element of the inducible expression system may also be affected. Based on this, the optimal design scheme of complex response element was determined in this Example based on the induced expression level and the ratio of induced/leaky expression level of Luciferase gene under the combination of the following conditions: (1) Tet-On and Cumate complex response elements TREadvCuO and TRE3GCuO designed based on the TREadv and TRE3G response element sequences; (2) whether an intron was linked; (3) being regulated by the transactivator rtTAadv or rtTA3G. A total of 8 design schemes were compared in this Example: TREadv (18BF232), TREadvCuO (18BF233), TRE3G (18BF234), TRE3GCuO (18BF235), TREadv-BGI (18BF240, wherein the response element was TREadv, and a human β-globulin intron was linked between the 3′ end of the response element and the 5′ end of the Luciferase gene), TREadvCuO-BGI (18BF241, wherein the response element was TREadvCuO, and a human β-globulin intron was linked between the 3′ end of the response element and the 5′ end of the Luciferase gene), TRE3G-BGI (18BF236, wherein the response element was TRE3G, and a human β-globulin intron was linked between the 3′ end of the response element and the 5′ end of the Luciferase gene) and TRE3GCuO-BGI (18BF237, wherein the response element was TRE3GCuO, and a human β-globulin intron was linked between the 3′ end of the response element and the 5′ end of the Luciferase gene). The promoter CMV-BGI (18BF229, wherein the promoter was CMV, and a human β-globulin intron was linked between the 3′ end of the CMV promoter and the 5′ end of the Luciferase gene) was used as a positive control. […]
# 293T-rtTA3G-CymR cells [2] = experiment: Luciferase fluorescence intensity assay, transient transfection, both DOX and Cumate vs DOX alone (Example 2); type: cell-based
# Description: The experiment described in the present Example is to study and verify the effect of the position and copy number of the CuO operator in the Tet-On and Cumate complex response element on the induced expression level and non-induced leaky expression level of the complex response element, and to optimize and confirm the optimal position and copy number of the CuO operator. In the present Example, based on the 7×TetO sequence in the TRE3G response element and the minimal promoter sequence #1 (SEQ ID NO: 25), the response elements TRE3GCuO14 (10-317 bp in SEQ ID NO: 8), TRE3GCuO30 (SEQ ID NO: 28), TRE3GCuO50 (SEQ ID NO: 23) and TRE3GCuO100 (10-403 bp in SEQ ID NO: 10) were designed by linking a CuO operator sequence at 10 bp to 100 bp downstream of the TATA box (at 14 bp, 30 bp, 50 bp and 100 bp downstream of the TATA box, respectively), and a Luciferase reporter gene sequence was linked downstream of the 3′ end of the above response elements, to construct plasmids 18BF251, 18BF252, 18BF235 and 18BF253. Further, in order to study the effect of multiple copies of CuO operators, 2, 4 and 6 copies of CuO operator sequences were respectively inserted at 50 bp downstream of the TATA box, to design the response elements TRE3GCuO2x (10-411 bp in SEQ ID NO: 11), TRE3GCuO4x (10-527 bp in SEQ ID NO: 12) and TRE3GCuO6x (10-643 bp in SEQ ID NO: 13), and then a Luciferase reporter gene sequence was linked downstream of 3′ end of the above response elements to construct plasmids 18BF254, 18BF255 and 18BF256. In 293T-rtTA3G-CymR cells stably expressing rtTA3G and CymR genes, the above plasmids were transiently transfected, and the optimal position and number of CuO operator were validated by measuring the luciferase […] value of samples added with both DOX and Cumate inducers and that of the control added with the DOX inducer only. The specific experimental methods were as follows:
# as §1
# The 293T-rtTA3G-CymR cells were seeded in a 96-well plate (Corning 3916) at 2.5E+04 cells per well, and the medium was 100 microliters of DMEM complete medium. […]
molecule,measurement,setting,value
B1,increase of induced/leaky expression ratio of TRE3GCuO over TREadvCuO,293T-rtTA3G-CymR cells [1]; 293T-rtTA3G-CymR cells,37.6%
same,induced expression level as % of the induced expression level of TRE3G,293T-rtTA3G-CymR cells [1]; 293T-rtTA3G-CymR cells / regulation of rtTA3G,61.8%
same,induced expression level,"293T-rtTA3G-CymR cells [1]; 293T-rtTA3G-CymR cells, 1 ug/ml DOX and 200 ug/ml Cumate",4.24E+06 RLU
same,induced expression level as % of that of the single regulatory response element,"293T-rtTA3G-CymR cells [1]; 293T-rtTA3G-CymR cells, DOX and Cumate",61.8%
same,induced/leaky expression ratio,"293T-rtTA3G-CymR cells [1]; 293T-rtTA3G-CymR cells, DOX and Cumate vs no inducer",2635 times
same,induced expression level as % of the induced expression level of TRE3G response element,293T-rtTA3G-CymR cells [2]; 1 ug/ml DOX and 200 ug/ml Cumate,66.0%
same,"ratio of induced/leaky expression level based on Cumate inducible expression system, relative to that of TRE3G response element",293T-rtTA3G-CymR cells [2]; DOX and Cumate vs DOX only,2.81 times
same,induced expression level,"293T-rtTA3G-CymR cells [2]; transient transfection, 1 ug/ml DOX and 200 ug/ml Cumate, 24 hours after transfection",4.53E+06 RLU
